# Data: PMC5839991 (Nature structural & molecular biology, 2018)
# B1: Nb.b201 (VHH)
# VHH: QVQLQESGGGLVQAGGSLRLSCAASGYISDAYYMGWYRQAPGKEREFVATITHGTNTYYADSVKGRFTISRDNAKNTVYLQMNSLKPEDTAVYYCAVLETRSYSFRYWGQGTQVTVSS
# Columns and labels:
# [1] = molecular target: recombinant human serum albumin from S. cerevisiae, biotin labeled (Homo sapiens, UniProt P02768, biotin (EZ-Link NHS-PEG4-Biotin)); assay: SPR
# [2] = molecular target: mouse serum albumin, biotin labeled (Mus musculus, UniProt P07724, biotin (EZ-Link NHS-PEG4-Biotin)); assay: SPR
# Sequence of mouse serum albumin, biotin labeled (P07724 25-608): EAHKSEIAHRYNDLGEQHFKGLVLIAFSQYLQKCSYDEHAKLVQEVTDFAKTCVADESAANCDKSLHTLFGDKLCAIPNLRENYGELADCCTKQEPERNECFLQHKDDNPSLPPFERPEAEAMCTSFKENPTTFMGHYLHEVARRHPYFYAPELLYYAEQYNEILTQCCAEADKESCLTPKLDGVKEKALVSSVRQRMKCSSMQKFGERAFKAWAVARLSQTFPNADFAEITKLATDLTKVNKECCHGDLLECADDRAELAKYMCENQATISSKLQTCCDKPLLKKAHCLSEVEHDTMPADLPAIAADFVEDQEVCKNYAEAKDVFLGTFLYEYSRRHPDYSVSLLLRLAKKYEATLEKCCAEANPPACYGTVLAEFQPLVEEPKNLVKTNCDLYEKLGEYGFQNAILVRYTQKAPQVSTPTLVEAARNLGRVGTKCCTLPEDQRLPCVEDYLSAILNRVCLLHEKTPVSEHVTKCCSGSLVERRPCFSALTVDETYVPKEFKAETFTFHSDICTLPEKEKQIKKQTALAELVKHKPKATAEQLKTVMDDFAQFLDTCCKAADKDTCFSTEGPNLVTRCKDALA
binder,measurement,setting,value
B1,Kd,[1],430 nM
same,binding result,[2],no binding
